Laboratory results: publication PMC3925751

Molecular target: the model collagen surfaces
Experiment: SPR

## lubricin (PRG4), purified from human synovial fluid (natural protein)
  adsorbed amount: 1 to 2 mg/m^2
